# Columns and labels:
# [1] = molecular target: prenylated Rac2-GTP (UniProt P15153); assay: co-sedimentation
# [2] = molecular target: Rac2 (prenylated Rac-GTP) (UniProt P15153); assay: liposome co-sedimentation, WAVE2 quantified; conditions: reference: WAVE2 complex, not PP2A treated
Substance,% bound (of total WAVE2) [1] [%],% bound (of total WAVE2; PIP3 liposomes + Rac-GTP) [1] [%],other: % of total WAVE2 bound [2]
"WAVE2 complex, PP2A treated (from UniProt Q9Y6W5 1-498; Q96F07 1-1278; Q9Y2A7 1-1128; Q8IZP0 1-508; Q8WUW1 1-75)",55,79,–
WAVE2 (from UniProt Q9Y6W5) PP2A treated WAVE2 complex,–,–,same; reference 56

# Source: publication PMC2818508
